Measured values published in paper PMC8546539, “CK2 Phosphorylation of Human Papillomavirus 16 E2 on Serine 23 Promotes Interaction with TopBP1 and Is Critical for E2 Interaction with Mitotic Chromatin and the Viral Life Cycle” (mBio, 2021).

B1: His-E2-S23D (amino acids 1 to 200) (domain or fragment)
chain: METLCQRLNVCQDKILTHYENDDTDLRDHIDYWKHMRLECAIYYKAREMGFKHINHQVVPTLAVSKNKALQAIELQLTLETIYNSQYSNEKWTLQDVSLEVYLTAPTGCIKKHGYTVEVQFDGDICNTMHYTNWTHIYICEEASVTVVEGQVDYYGLYYVHEGIRTYFVQFKDDAEKYSKNKVWEVHAGGQVILCPTSVF
notes: source: E. coli BL21(DE3), purified (Ni-NTA agarose, size exclusion chromatography)

Experiments:
[1] = biological target: TopBP1 (UniProt Q92547); test: TopBP1 antibody co-IP, E2 Western blot; conditions: reference: E2-WT; sites S23
[2] = biological target: TopBP1 (UniProt Q92547); test: TopBP1 antibody co-IP, E2 Western blot; conditions: reference: E2-WT; sites S23; remark: listed apart in the source
[3] = biological target: T1, GST TopBP1 (aa 32 to 1522) His (UniProt Q92547 32-1522); test: pull-down; conditions: both partners purified
T1 construct: also called GST-tagged TopBP1; recombinant GST-TopBP1 (full length); source: E. coli BL21(DE3), purified (Glutathione Sepharose 4B, size exclusion chromatography)

Row | Molecule | binding against the reference [1] | binding against the reference [2] | binding result [3]
1 | HPV16 E2 (from UniProt P03120) E2-S23A | weaker | weaker | 
2 | B1 |  |  | binds
